# Reference: patent US20240325549A1 (HANGZHOU ZHONGMEIHUADONG PHARMACEUTICAL, published 2024)
# B1: P001 (peptide)
# peptide: YXEGTXTSDYXIXLDKQAQAEFVKWLLKGGPSSGAPPPSK
# modifications: Aib at 2, αMePhe at 6, Aib at 11, Aib at 13; C-terminal primary amide
# B2: P008 (peptide)
# peptide: B1 peptide
# modifications: Aib at 2, αMePhe at 6, Aib at 11, Aib at 13; K at position 28 conjugated at the ε-amino with ([2-(2-amino-ethoxy)-ethoxy]-acetyl)2-(γ-Glu)1-CO-(CH2)16-CO2H; C-terminal primary amide
# B3: P013 (peptide)
# peptide: B1 peptide
# modifications: Aib at 2, αMePhe at 6, Aib at 11, Aib at 13; K at position 24 conjugated at the ε-amino with ([2-(2-amino-ethoxy)-ethoxy]-acetyl)2-(γ-Glu)1-CO-(CH2)18-CO2H; C-terminal primary amide
# B4: P007 (peptide)
# peptide: B1 peptide
# modifications: Aib at 2, αMePhe at 6, Aib at 11, Aib at 13; K at position 24 conjugated at the ε-amino with ([2-(2-amino-ethoxy)-ethoxy]-acetyl)2-(γ-Glu)1-CO-(CH2)16-CO2H; C-terminal primary amide
# Target: T1, human GIP receptor (human, UniProt P48546 22-466)
# T1 construct: whole, on cells; Functional assays: HEK293/GIPR cells and transiently transfected CHO-K1 cells; also called hGIPR
# T1 sequence (looked up): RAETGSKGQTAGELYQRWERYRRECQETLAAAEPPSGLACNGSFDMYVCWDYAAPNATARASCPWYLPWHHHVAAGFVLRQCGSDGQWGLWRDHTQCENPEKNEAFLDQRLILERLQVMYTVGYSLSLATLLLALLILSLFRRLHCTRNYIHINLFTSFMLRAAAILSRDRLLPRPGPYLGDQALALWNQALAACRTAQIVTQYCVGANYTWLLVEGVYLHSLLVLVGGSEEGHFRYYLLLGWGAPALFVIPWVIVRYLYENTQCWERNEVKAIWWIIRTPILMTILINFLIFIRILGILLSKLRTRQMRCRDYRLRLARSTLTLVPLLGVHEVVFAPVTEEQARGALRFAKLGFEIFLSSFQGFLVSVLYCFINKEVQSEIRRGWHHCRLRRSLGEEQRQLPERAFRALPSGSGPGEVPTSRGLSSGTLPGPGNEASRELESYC
# Experiment: radioligand competition: displacement of [125I]GIP from membranes of cells over-expressing human GIPR; ratio = Ki of GIP / Ki of compound
# Description: 98 μL of membrane dissolved in binding buffer (50 mM HEPES pH 7.4, 5 mM MgCl₂, 1 mM CaCl₂, 0.1% BSA, 0.005% Tween-20) is transferred to a 96-well test plate (15 μg/well). The compound is serially diluted in DMSO, and then, 2 μL of the diluted compounds or 100% DMSO is added to the test plate containing the membrane solution. […] The test plate is left at room temperature for 90 minutes. […] After drying at 37° C. for 2 hours, 50 μL of scintillation fluid is added to each well. The plate is read with a MicroBeta2 scintillation counter after sealing and settling for at least 1 hour so as to determine the membrane bound radioligand level.
row,Binder,Ki ratio [ratio]
1,B1,8.82
2,B2,0.16
3,B3,0.14

# Target: T2, human GLP-1 receptor (human, UniProt P43220 24-463)
# T2 construct: whole, on cells; Functional assays: HEK293/CRE/GLP-1R cells, human GLP-1R-HEK cells and transiently transfected CHO-K1 cells; also called hGLP-1R
# Experiment: radioligand competition: displacement of [125I]GLP-1 from membranes of cells over-expressing human GLP-1R; ratio = Ki of GLP-1 / Ki of compound
# Description: 89 μL of membrane dissolved in binding buffer (50 mM Hepes, pH 7.4, 5 mM MgCl₂, 5 mM EDTA, 0.005% TWEEN, 0.005% HSA) is transferred to a 96-well test plate (5 μg/well). The compound is serially diluted in DMSO, and then, 1 μL of the diluted compound or 100% DMSO is added to the test plate containing the membrane solution. 10 μL of [¹²⁵I] […] The test plate is left at room temperature for 90 minutes. The membrane complexes are harvested into a GF/B plate pre-coated with 0.5% PEI by using a Cell Harvester, and washed for 3 times with 500 μL of pre-cooled elution buffer (50 mM Hepes, pH 7.4, 500 mM NaCl) at 4° C. After drying at 37° C. for 2 hours, 50 μL of scintillation fluid is added to each well. The plate is read with a MicroBeta2 scintillation counter after sealing and settling for at least 1 hour so as to determine the membrane bound radioligand level.
row,Binder,Ki ratio [ratio]
1,B1,19.5
2,B2,1.09
3,B4,0.47
4,B3,0.28

# Target: T1, human GIP receptor
# Experiment: cell-based or functional assay
row,Binder,"EC50 value (ratio of the EC50 of the endogenous ligand GIP to the EC50 of the test compound), LANCE Ultra cAMP assay in HEK293/GIPR cells [ratio]"
1,B1,7.13
2,B2,1.67
3,B4,1.15
4,B3,0.86

# Target: T2, human GLP-1 receptor
# Experiment: cell-based or functional assay
row,Binder,"EC50 value (ratio of the EC50 of the endogenous ligand GLP-1 to the EC50 of the test compound), cAMP reporter gene (luciferase) assay in HEK293/CRE/GLP-1R cells [ratio]"
1,B1,52.1
2,B2,4.79
3,B4,5.84
4,B3,2.41
